Measurements as given in paper PMC3274613 (Bioorganic & medicinal chemistry letters, 2012).
Bridge positions count the residues as written; N and C are the ends. Square brackets hold non-standard residues; d marks the D form. Peptide text beside a SMILES is read from it.

Legend:
[1] = test system: B16/F1 melanoma-bearing C57 mouse; test: SPECT/CT melanoma imaging; assay type: in vivo; settings: 2 h post-injection, approximately 6.7 MBq, one mouse
[2] = mouse, in vivo
in vivo = test: in vivo; design: species or system mice; settings: C57, mouse, iv, total radioactivity
[3] = test system: B16/F1 melanoma-bearing C57 mice; test: in vivo; settings: C57, mouse, iv, 2 h
B16/F1 melanoma cells = test: Cellular internalization in B16/F1 melanoma cells; assay type: cell-based, murine
αvβ3 integrin receptor = settings: relative to RGD-Lys-(Arg11)CCMSH; cited from earlier work
MC1 receptor = settings: read-out: MC1 receptor binding affinity; M21 melanoma cells; cited from earlier work
[4] = 0.037 MBq, Uptake ratio Tumor/Lung

Compound	Visualization of flank melanoma tumors by SPECT/CT [1]	Transformed to a more lipophilic metabolite in urine [2] [%]	tissue to tissue ratio at 0.5 h (in vivo; [4])	tissue to tissue ratio at 2 h (in vivo; [4])	tissue to tissue ratio at 4 h (in vivo; [4])	tissue to tissue ratio at 24 h (in vivo; [4])	tissue uptake dose at 2 h (in vivo; Bladder, percent injected dose) [%ID]	Bladder, percent injected dose [3] [%ID]	Blood, percent injected dose/gram [3] [%ID/g]	Bone, percent injected dose/gram [3] [%ID/g]	Heart, percent injected dose/gram [3] [%ID/g]	Kidneys, percent injected dose/gram [3] [%ID/g]	Lung, percent injected dose/gram [3] [%ID/g]	Muscle, percent injected dose/gram [3] [%ID/g]	Spleen, percent injected dose/gram [3] [%ID/g]	Stomach, percent injected dose/gram [3] [%ID/g]	Activity internalized (B16/F1 melanoma cells; 20 min post incubation) [%]	Activity internalized (B16/F1 melanoma cells; after 2 h incubation) [%]	Decrease of αvβ3 integrin receptor binding affinity on switch from RGD to RAD (αvβ3 integrin receptor) [fold]	IC50 (MC1 receptor) [nM]
CC(C)[C@H](NC(=O)[C@@H]1CCCN1C(=O)[C@H](CCCNC(=N)N)NC(=O)[C@H](CS)NC(=O)[C@H](Cc1c[nH]c2ccccc12)NC(=O)[C@H](CCCNC(=N)N)NC(=O)[C@@H](Cc1ccccc1)NC(=O)[C@H](Cc1c[nH]cn1)NC(=O)[C@H](CCC(=O)O)NC(=O)[C@H](CS)NC(=O)[C@H](CS)NC(=O)[C@H](CCCCN)NC(=O)[C@@H]1CC(=O)N[C@@H](CCCNC(=N)N)C(=O)N[C@@H](C)C(=O)N[C@@H](CC(=O)O)C(=O)N[C@H](Cc2ccc(O)cc2)C(=O)N1)C(N)=O [^99mTc-RAD-Lys-(Arg^11)CCMSH, metal not drawn] (RAD[dY]DKCCEH[dF]RWCRPV-NH2; lactam N-5; C-terminus assumed)	visualized clearly	18	4.26	22.9	39.1	31.9	69.54 ± 0.63	70.34 ± 3.28	0.44 ± 0.11	0.52 ± 0.31	0.30 ± 0.10	50.10 ± 18.56	0.78 ± 0.17	0.28 ± 0.30	0.50 ± 0.09	1.92 ± 0.24	59.20 ± 5.10	78.24 ± 1.13		
CC(C)[C@H](NC(=O)[C@@H]1CCCN1C(=O)[C@H](CCCNC(=N)N)NC(=O)[C@H](CS)NC(=O)[C@H](Cc1c[nH]c2ccccc12)NC(=O)[C@H](CCCNC(=N)N)NC(=O)[C@@H](Cc1ccccc1)NC(=O)[C@H](Cc1c[nH]cn1)NC(=O)[C@H](CCC(=O)O)NC(=O)[C@H](CS)NC(=O)[C@H](CS)NC(=O)[C@H](CCCCN)NC(=O)[C@@H]1CC(=O)N[C@@H](CCCNC(=N)N)C(=O)N[C@@H](C)C(=O)N[C@@H](CC(=O)O)C(=O)N[C@H](Cc2ccc(O)cc2)C(=O)N1)C(N)=O [RAD-Lys-(Arg^11)CCMSH] (RAD[dY]DKCCEH[dF]RWCRPV-NH2; lactam N-5; C-terminus assumed)																			248	0.3
